According to patent US20160039896A1 (Stanford University, published 2016):
Changes are numbered by the printed parent chain. Names may count otherwise. Blank lines part the entries; values can stand above or below the binder they belong to.

Columns and labels:
[1] = target: T1, recombinant human VEGFR2 extracellular domain (human, UniProt P35968 20-764); test: yeast surface display of individual clones, soluble VEGFR2
T1 construct: extracellular domain; Bought (Calbiochem); also called KDR; Flk-1
T1 sequence (P35968 20-764): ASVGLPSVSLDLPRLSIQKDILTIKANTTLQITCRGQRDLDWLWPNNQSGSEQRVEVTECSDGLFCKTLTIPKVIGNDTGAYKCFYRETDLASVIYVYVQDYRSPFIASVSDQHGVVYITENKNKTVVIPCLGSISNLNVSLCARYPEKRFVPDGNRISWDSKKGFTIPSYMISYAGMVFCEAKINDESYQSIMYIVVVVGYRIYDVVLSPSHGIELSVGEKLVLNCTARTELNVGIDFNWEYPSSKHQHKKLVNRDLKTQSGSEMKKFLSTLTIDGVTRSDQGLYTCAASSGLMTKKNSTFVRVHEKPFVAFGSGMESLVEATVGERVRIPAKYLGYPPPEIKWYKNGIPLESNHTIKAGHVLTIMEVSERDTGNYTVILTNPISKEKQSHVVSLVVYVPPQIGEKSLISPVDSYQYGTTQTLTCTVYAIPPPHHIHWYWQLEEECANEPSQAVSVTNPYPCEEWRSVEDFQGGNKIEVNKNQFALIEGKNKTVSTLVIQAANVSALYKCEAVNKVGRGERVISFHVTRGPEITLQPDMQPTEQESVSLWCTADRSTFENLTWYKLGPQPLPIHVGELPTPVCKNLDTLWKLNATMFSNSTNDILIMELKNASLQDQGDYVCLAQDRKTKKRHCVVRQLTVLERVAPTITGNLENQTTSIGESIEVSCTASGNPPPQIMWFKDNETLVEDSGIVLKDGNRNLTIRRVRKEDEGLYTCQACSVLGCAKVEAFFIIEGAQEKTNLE

[2] = target: U87MG human glioblastoma cells; test: flow cytometry titration on U87MG cells, anti-FLAG detection
[3] = target: VEGFR2 and αvβ3 integrin on HUVEC; test: flow cytometry titration on HUVEC (VEGFR2 and αvβ3 integrin), anti-FLAG detection
[4] = target: VEGFR2 and αvβ3 integrin on SVR angiosarcoma cells (murine); test: flow cytometry titration on SVR murine angiosarcoma cells (VEGFR2 and αvβ3 integrin), anti-FLAG detection
[5] = target: VEGFR2 and αvβ3 integrin on HUVEC; test: cell-based or functional assay

B1: scVEGFrgd-7B-K (ligand)
chain: EVVKAMDVYQRSYCHPIETLVDILQEYPDEIEYIFKPSCVPLMRCGGCCNDAGLECVPTEESNITMQIMRIKPYQGQHIGEMSFLQHNKCECRPKKDGSTSGSGKSSEGKGEVVRFMDVYQRSYCHPIETLVDIFQEYPDEIEYAFKPSCVPLMRCGGCCNHEGLECVPTEESNITMQIMRPHDRGDAGVHIGEMSFLQHNKCECRPKED
notes: built from the parts; F17A, E64A and I46A are kept because the RGD libraries were made from scVEGFmut
binding result [1]: binds

B2: scVEGFrgd-7B-A (ligand)
chain: B1 chain with I68V, Q75R, R115K, H162N, K208R, E209K
notes: as for B1
binding result [1]: binds

B3: scVEGFrgd-7B-C (ligand)
chain: B1 chain with R11G, D51N, D97G, R115K, Q178R, E209R
notes: as for B1
binding result [1]: binds

B4: scVEGFrgd-7H (ligand)
chain: EVVKAMDVYQRSYCHPIETLVDIFQEYPDEIEYIFKPSCVPLMRCGGCCNDAGLECVPTEESNITMQIMRIKPHQGQHIGEMSFLQHNKCECRPKKDGSTSGSGKSSEGKGEVVKFMDVYQRSYCHPIETLVDIFQEYPDEIEYAFKPSCVPLMRCGGCCNDEGLECVPTEESNITMQIMRPGGRGDSAYHIGEMSFLQHNKCECRPKKDTR
Kd [2]: 15.6 nM | Kd [3]: 12 nM | Kd [4]: 18 nM

Other lines, results leading:

Kd [2]: 29 nM | Kd [3]: 45 nM | Kd [4]: 31 nM
B5: scVEGFrgd-7P (ligand)
chain: B4 chain with G183A, G184S, A189P, Y190P

inhibition of VEGF-induced autophosphorylation of VEGFR-2 in HUVEC, in the presence of vitronectin [5]: 80% | Kd [2]: 13.9 nM | Kd [3]: 6 nM | Kd [4]: 37 nM
B6: scVEGFrgd-7I (ligand)
chain: EVVKAMDVYQRSYCHPIETLVDIFQEYPDEIEYIFKPSCVPLMRCGGCCNDAGLECVPTEESNITMQIMRIKPHQGQHIGEMSFLQHNKCECRPKKDGSTSGSGKSSEGKGEVVKFMDVYQRSYCHPIETLVDIFQEYPDEIEYAFKPSCVPLMRCGGCCNDEGLECVPTEESNITMQIMRPSVRRGDSPASHIGEMSFLQHNKCECRPKKDTR
